Reference: the DeepSol protein solubility set

Experiment: soluble on expression in E. coli; label from the status in PepcDB or PDB records

Sequence	soluble on expression in E. coli
MGSDKIHHHHHHMLKIYVVDNGGQWTHREWRVLRELGVDTKIVPNDIDSSELDGLDGLVLSGGAPNIDEELDKLGSVGKYIDDHNYPILGICVGAQFIALHFGASVVKAKHPEFGKTKVSVMHSENIFGGLPSEITVWENHNDEIINLPDDFTLAASSATCQVQGFYHKTRPIYATQFHPEVEHTQYGRDIFRNFIGICASYREIQKENFQH	soluble
MSLDNLNLIVSLKDGGLLHFKRDEELGEINVFNFQEQGTLIPFLGFFGSGKQKDVVLDGVSSNSIVDALQIGGSGVVITLSVNKVLKLWNLDGHQNLSSLTIASDDNTWLPTIPSKYLKSYDQEDGKTIITLFINTKSGDSSKSMFVFKSFELESSNLHDLSDLSFQPELPNSLLFSSDVFYHESNFQNTIWFIQDYEVVGFGTSQLKYYILWKSNTSSILVEYTINPVNGAILSEGHHHHHH	not soluble
MSKKFEGSVAPRERINISYVPKTDGQTAEVELPLNMLVVGDTGNTQETSSLDERQAVSVNKHNFGAVMAEAAIGLNFTVPATLKGSTTDDEMNVALNIKSLDDFSPDSVARQVPEVNKLLELREALTALKGPMGNLPAFRTQLQALLENEESREQLLKEIGQVSNK	soluble
DESSKNGLMDMVSQGLNAESSPLTELLTSQLPVSTEQAAGGSSALIALAQSQLSQQNSTELQSLIPGLSNLKGAQSLLGNIESLSAVQSAFN	not soluble
MAHHHHHHMDIIKNETKEMDMYNPSVSINFEKGILKNSCDTPKDTKLEKLKREYNILTSSYDYNSGNKKERRNIWKEKVKHNIASKNKKKMVKIKKEENNNELENKKGENLLMYVNDKNSNLNVYIDENDLFEETPNISSNTLLSYISNIFLRKKNIYEIKKCDFIKEVNTDESLKRNFIPPVDILYDDKKVLFLFFISGNLQNFHVTSNNNYLTISGEKIPYQVQDHTSYFSHEIKKGYFIRTYCFMKTFDKEKIYYEQNNGVIKIYVYICDDNNI	not soluble
MVDGNYSVASNVMVPMRDGVRLAVDLYRPDADGPVPVLLVRNPYDKFDVFAWSTQSTNWLEFVRDGYAVVIQDTRGLFASEGEFVPHVDDEADAEDTLSWILEQAWCDGNVGMFGVSYLGVTQWQAAVSGVGGLKAIAPSMASADLYRAPWYGPGGALSVEALLGWSAKIGTGLITSRSDARPEDAADFVQLAAILNDVAGAASVTPLAEQPLLGRLIPWVIDQVVDHPDNDESWQSISLFERLGGLATPALITAGWYDGFVGESLRTFVAVKDNADARLVVGPWSHSNLTGRNADRKFGIAATYPIQEATTMHKAFFDRHLRGETDALAGVPKVRLFVMGIDEWRDETDWPLPDTAYTPFYLGGSGAANTSTGGGTLSTSISGTESADTYLYDPADPVPSLGGTLLFHNGDNGPADQRPIHDRDDVLCYSTEVLTDPVEVTGTVSARLFVSSSAVDTDFTAKLVDVFPDGRAIALCDGIVRMRYRETLVNPTLIEAGEIYEVAIDMLATSNVFLPGHRIMVQVSSSNFPKYDRNSNTGGVIAREQLEEMCTAVNRIHRGPEHPSHIVLPIIKRKLAAALEHHHHHH	soluble
MEDKLVTLAILTYTKAQILKNVLENEGIETYIHNVNQIQPVVSSGVRLRIKESDLPRALKITESSTWLSESIVGEKTPKVDSKSNKILIPVDFSNYSMKACEFGFNLAKTENSEVILLHVYFTPIYASSLPYGDVFNYQIGDEESVKTIIQQVHSDLNALSDKIKEKVASGEFPDIKYSCILREGIPEEEILRYAKEQRPKVIIMGTRGKSQKDIDLIGSVTAEIIDRSRTAVLAIPENTPFKEFNEVKRIAFLTNFDQRDLIAFEAFFNTWKSFHFSVSLIHLAESKDTWNEIKLAGIKDYFQKQYPGLEIHYDVVMNDNLLKGLDKYIKDNQIDIITLTSYKRNIFARLFNPSIARKMIFHSDTPLLVING	not soluble
MKEKISKKEYNALIRKTGEKHFDGEKEEYGDGTVGLWTYELRKYKLKPPVKVKYVTQEEFGEFKDATNQRLTKIENALVAQGEQIRAQGEQLSQLIKVVLLQGEQIKSQGEQIKSLEHHHHHH	not soluble
MNGWNFQELKETPSQTGGPYVHIGLLPKQANIEVFEHNLDNNLVQDNTQGQRIRLEGQVFDGLSLPLRDVLIEIWQADTNGVYPSQADTQGKQVDPNFLGWGRTGADFGTGFWSFNTIKPGAVPGRKGSTQAPHISLIIFARGINIGLHTRVYFDDEAEANAKDPVLNSIEWATRRQTLVAKREERDGEVVYRFDIRIQGENETVFFDI	soluble
MGSDKIHHHHHHMSEPVKGAQTVTRALSVLKHISHAHPFGIAIGELSEVSQLDRATTYRLASTLVSFGLVERDAARKYRLGVEAMQLGLSAMRSAPIVGQLQPAMRRLARRTEDTVFLVVRSGDYGHCIHCEEGTYPVKAMVLQVGGMRLLGVGSAGMTLLSMLSDVEVLALYQRHQEEFSRGPSFAKLKRMVGEARERGYADTVDLVTEGVSGVGMRFELSAGSHAAVSVAAIRSRMTPERKKWIAEIIAEELQVSGFTPAYSRVS	not soluble
GPGSMETTTHVVNPGEEGAYSSITEAINAAVDGDTVLLKPGLYEELPKVFKDITVTAERDASLTESETIVTNGIVIGSNATLKGLQVRGRVDVRKGHAVIEECDIHHGCDGIRVGEAAKLTVRRSRIHHCESGGDGIYFSTGSMGEVEDCDIYECRVNGVHANNARVVIARNRVRDVLFGFYFRGQSSGSVERNSVEHVSKFGIYVTEGSDPVVQGNMVRECGMHCAFVSQGGKGIWVDNSFDGSMHVHSGCDAKLGSNHVVGRLDVDPPT	not soluble
DYKYVLKGHEDIRQDSLVMQLFGLVNTLLKNDSECFKRHLDIQQYPAIPLSPKSGLLGWVPNSDTFHVLIREHRDAKKIPLNIEHWVMLQMAPDYENLTLLQKIEVFTYALDNTKGQDLYKILWLKSRSSETWLERRTTYTRSLAVMSMTGYILGLGDRHPSNLMLDRITGKVIHIDFGDCFEAAILREKYPEKVPFRLTRMLTYAMEVSGIEGSFRITCENVMRVLRDNKESLMAILEAFALDPLIHWGFD	not soluble
MMKEFTPAPDSASIVSVTDRVKPVALGMGVTSVHFLGDRAAFVGGEENVAFVDSQGEITTVAVHGGGILSTASDGKRLVMGGDDGKVVSLDAKGEVTLLATDPKRRWIDAVALHADGAFAWSAGKTATVKSGKTEEKSLEVPSTVGGLAFAPKGLRLAIAHYNGATLWFPNMAASAEFLPWAGSHHAVTFSPDNKFLVTAMHEPALHGWRLADNRHMRMTGYPGRVRSMSWSAGGKALATSGADTVILWPFGSKDGPMGKEPAMLAPLQARVSVVACHPKNDILAAGYSDGTVLMVRLEDGAEILVRRNGTPPVAALAWNAKGTLLAFADENGDGGLLELLEHHHHHH	soluble
MKEYKRPDMYDKLLPMERIHIEVFEPFNGEAIEGKYSYVLLCRDYRSSFMWLLPLKSTKFKHLIPVVSSLFLTFARVPIFVTSSTLDKDDLYDICEEIASKYGLRIGLGLKSSARFHTGGILCIQYALNSYKKECLADWGKCLRYGPYRFNRRRNKRTKRKPVQVLLSEVPGHNAKFETKRERVIENTYSRNMFKMAGGKGLIYLEDVNTFALANEADNSCNNNGILHNNNIGNDNFEEEVQKQFDLTEKNYIDEYDDLAHDSSEGEFEPNTLTPEEKPPHNVDEDRIESTGVAAPMQGTEEPEKGDQKESDGASQVDQSVEITRPETSYYQTLESPSTKRQKLDQQGNGDQTRDFGTSMEL	not soluble
SLRASDDKALQYAIAEITEIATGFGLDFYPMRYEICPAEIIYTFGAYGMPTRFSHWSFGKQFFRMKLQYDLGLSKIYELVINSDPCYAFLLDTNSLIQNKLIVAHVLAHCDFFKNNIRFSNTKRDMVESMSATAERVKAYEHKYGKEEVETFLDAVLAIQEHIDPSLMRPKLAWSIDDLEEEEVEKKKVSQYDDLWNLDNRNKKRERSNVRKKKKIPPQPEKDLLLFIEEYSRELEDWQRDILTMMREEMLYFWPQLETKIMNEGWASYY	soluble
MYQKKDRACRIRRKQCKLFGDWQKSVITQLKTIQDKNISIHKAFGCMIRLAANLFYAHSKIIHFMSEEAGEDAQRKAAEREAKKAEVRKRLEEAGNKKKAKKGFLTPERKKKLRKLLMVKAAEDLKRQQLLKEQERQKALADRTISLPNVDSIDDKGQLEKIYNDLWARLTQLEEEKYDINYVVSQTEAEINSLTIEVNDLRGKFVKPSLKKVSKYDNKFKKSGESKAGTKEDFRANLKIVKKDVMEAIVNVKKKDDKPDWSKKNKDAKAEDSAPAAVAPEAEPVAEEAEAEPEAEEEEGEEEEEE	not soluble
